The text below walks through data of publication PMC10281526, “Polydom/SVEP1 binds to Tie1 and promotes migration of lymphatic endothelial cells” (The Journal of Cell Biology, 2023).

For assay [1], the target named is recombinant Tie1 extracellular domain, Fc fusion protein (UniProt P35590).
Another assay concerns the target T1, Tie2 (Homo sapiens (Human), UniProt Q02763).
T1 chain: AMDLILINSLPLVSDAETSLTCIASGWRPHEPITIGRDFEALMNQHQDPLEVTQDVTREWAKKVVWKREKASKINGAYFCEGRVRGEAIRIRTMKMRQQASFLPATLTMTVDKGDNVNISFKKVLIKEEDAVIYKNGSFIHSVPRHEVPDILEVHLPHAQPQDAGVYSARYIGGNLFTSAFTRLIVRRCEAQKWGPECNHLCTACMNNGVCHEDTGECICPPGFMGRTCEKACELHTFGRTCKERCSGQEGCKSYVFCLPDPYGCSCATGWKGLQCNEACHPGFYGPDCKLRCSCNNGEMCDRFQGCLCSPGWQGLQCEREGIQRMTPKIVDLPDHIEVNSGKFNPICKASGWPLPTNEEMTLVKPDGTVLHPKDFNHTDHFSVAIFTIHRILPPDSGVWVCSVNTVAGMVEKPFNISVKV
Nature of the assay: solid-phase ELISA, Tie-Fc dimers on coated SVEP1. (In general: ELISA stands for enzyme-linked immunosorbent assay.)

Assay [2] concerns the target T2, recombinant full-length mouse Polydom (mouse, UniProt A2AVA0 18-3567).
T2 construct: Polydom (SVEP1), mouse, full length; expression vector as in Sato-Nishiuchi et al., 2012; The construct is described in Sato-Nishiuchi et al., 2012; also called SVEP1; full-length Polydom
Put plainly: ELISA; reverse solid-phase binding assay, titration: full-length Polydom coated (10 nM by the legend), serially diluted Tie1-Fc or Tie2-Fc in solution, detected with HRP anti-human IgG against the Fc tag; apparent dissociation constant. To be noted: both partners purified.

Some results are limits rather than exact numbers.

T2 sequence (A2AVA0 18-3567): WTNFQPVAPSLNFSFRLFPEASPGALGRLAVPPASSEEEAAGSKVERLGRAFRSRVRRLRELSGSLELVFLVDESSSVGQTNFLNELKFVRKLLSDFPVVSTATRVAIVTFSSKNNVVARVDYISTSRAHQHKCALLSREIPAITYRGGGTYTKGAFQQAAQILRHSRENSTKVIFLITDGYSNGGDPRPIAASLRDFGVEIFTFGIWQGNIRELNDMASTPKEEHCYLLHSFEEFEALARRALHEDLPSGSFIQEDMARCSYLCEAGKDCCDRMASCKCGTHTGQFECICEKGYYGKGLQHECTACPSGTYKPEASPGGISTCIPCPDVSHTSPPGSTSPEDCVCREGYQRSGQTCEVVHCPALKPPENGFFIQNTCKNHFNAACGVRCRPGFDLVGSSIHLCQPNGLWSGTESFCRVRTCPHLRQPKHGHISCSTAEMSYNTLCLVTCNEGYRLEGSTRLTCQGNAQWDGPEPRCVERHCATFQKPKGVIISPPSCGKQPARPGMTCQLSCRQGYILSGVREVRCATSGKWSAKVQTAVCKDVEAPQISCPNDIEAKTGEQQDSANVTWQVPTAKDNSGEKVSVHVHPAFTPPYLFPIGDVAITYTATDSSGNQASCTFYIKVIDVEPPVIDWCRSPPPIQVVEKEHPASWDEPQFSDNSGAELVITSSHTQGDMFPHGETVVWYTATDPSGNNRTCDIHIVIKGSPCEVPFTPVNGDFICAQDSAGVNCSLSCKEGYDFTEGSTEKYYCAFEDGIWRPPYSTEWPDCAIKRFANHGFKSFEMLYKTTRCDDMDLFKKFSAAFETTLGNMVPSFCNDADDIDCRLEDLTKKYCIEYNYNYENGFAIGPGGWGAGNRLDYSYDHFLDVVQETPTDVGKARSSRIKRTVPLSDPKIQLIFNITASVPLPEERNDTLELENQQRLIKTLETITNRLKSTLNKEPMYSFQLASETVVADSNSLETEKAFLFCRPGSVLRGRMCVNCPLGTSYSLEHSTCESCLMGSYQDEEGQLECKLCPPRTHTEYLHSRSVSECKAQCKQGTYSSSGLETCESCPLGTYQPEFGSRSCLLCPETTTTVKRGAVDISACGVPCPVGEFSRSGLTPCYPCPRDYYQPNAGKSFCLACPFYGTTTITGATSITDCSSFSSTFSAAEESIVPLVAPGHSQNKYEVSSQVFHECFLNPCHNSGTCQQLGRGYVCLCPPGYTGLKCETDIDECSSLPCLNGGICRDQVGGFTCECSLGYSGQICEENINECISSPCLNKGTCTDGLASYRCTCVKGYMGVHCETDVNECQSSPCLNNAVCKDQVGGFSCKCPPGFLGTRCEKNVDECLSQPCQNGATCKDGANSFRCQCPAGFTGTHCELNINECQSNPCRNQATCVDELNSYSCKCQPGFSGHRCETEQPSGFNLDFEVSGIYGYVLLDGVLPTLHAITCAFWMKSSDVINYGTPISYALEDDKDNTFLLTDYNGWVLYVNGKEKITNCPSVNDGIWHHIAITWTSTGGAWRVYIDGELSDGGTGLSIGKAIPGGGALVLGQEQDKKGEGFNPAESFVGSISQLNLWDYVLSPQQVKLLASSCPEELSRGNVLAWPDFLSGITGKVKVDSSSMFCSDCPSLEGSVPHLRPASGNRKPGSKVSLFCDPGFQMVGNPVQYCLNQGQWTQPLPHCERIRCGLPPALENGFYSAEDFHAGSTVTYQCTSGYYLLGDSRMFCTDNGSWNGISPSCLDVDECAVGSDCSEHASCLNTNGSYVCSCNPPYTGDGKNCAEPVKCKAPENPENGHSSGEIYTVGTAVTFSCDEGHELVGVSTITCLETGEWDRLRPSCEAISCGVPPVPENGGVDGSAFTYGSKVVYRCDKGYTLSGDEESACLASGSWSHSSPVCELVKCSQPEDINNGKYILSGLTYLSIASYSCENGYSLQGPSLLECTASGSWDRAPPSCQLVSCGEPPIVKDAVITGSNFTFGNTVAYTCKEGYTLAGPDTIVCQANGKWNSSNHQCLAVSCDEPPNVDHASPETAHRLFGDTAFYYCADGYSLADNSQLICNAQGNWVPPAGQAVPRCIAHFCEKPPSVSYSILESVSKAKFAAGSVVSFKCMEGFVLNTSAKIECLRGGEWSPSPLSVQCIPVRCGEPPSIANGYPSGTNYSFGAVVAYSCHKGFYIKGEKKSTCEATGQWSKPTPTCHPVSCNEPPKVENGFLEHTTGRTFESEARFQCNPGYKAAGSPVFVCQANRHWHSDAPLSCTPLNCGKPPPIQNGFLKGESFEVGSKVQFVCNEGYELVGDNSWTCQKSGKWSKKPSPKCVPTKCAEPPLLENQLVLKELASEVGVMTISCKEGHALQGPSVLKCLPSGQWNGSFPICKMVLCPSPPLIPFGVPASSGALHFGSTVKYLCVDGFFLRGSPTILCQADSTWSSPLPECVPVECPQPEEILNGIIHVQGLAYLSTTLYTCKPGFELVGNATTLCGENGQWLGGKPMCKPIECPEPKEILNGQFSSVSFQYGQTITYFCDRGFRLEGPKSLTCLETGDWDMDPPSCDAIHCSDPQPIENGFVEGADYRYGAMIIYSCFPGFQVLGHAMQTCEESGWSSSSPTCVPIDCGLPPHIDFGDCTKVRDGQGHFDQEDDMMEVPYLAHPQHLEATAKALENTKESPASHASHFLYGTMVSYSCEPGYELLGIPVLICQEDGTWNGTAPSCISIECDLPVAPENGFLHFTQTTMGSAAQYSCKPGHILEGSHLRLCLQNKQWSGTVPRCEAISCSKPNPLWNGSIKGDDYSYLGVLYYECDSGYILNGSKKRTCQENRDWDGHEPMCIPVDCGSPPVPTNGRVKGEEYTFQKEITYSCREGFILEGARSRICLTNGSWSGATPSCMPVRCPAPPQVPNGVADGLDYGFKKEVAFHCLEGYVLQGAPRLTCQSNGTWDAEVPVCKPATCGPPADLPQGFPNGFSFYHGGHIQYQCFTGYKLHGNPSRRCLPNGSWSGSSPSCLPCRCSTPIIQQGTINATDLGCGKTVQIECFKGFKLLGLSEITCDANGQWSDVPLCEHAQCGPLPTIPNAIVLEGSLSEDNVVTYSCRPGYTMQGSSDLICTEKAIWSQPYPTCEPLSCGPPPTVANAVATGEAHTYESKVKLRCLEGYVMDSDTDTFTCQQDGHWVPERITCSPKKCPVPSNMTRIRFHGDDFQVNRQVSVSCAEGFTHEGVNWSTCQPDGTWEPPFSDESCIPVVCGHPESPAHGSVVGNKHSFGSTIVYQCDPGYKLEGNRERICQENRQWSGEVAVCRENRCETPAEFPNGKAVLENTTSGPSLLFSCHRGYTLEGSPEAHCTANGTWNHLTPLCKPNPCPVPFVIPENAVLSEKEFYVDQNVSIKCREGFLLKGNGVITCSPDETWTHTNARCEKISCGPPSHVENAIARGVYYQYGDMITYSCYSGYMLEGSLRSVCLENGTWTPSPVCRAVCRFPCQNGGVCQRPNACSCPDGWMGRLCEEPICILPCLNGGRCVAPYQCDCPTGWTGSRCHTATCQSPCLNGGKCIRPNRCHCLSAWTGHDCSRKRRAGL

Turning to “full-length Polydom E2567A mutant, A2AVA0 18-3567”, in assay [1], the Transwell migration of human dermal LECs toward Polydom/E2567A (1 μg/ml) in the lower chamber, reduction compared with control Polydom was determined as 80%.

B1: SVEP1 (protein)
chain: DAIHCSDPQPIENGFVEGADYRYGAMIIYSCFPGFQVLGHAMQTCEESGWSSSSPTCVPID
In the case of B1, the Kd with Tie2 was > 500 nM.

B2: recombinant Tie1 extracellular domain, Fc fusion protein (Fc fusion, UniProt P35590 22-759, looked up)
chain: AVDLTLLANLRLTDPQRFFLTCVSGEAGAGRGSDAWGPPLLLEKDDRIVRTPPGPPLRLARNGSHQVTLRGFSKPSDLVGVFSCVGGAGARRTRVIYVHNSPGAHLLPDKVTHTVNKGDTAVLSARVHKEKQTDVIWKSNGSYFYTLDWHEAQDGRFLLQLPNVQPPSSGIYSATYLEASPLGSAFFRLIVRGCGAGRWGPGCTKECPGCLHGGVCHDHDGECVCPPGFTGTRCEQACREGRFGQSCQEQCPGISGCRGLTFCLPDPYGCSCGSGWRGSQCQEACAPGHFGADCRLQCQCQNGGTCDRFSGCVCPSGWHGVHCEKSDRIPQILNMASELEFNLETMPRINCAAAGNPFPVRGSIELRKPDGTVLLSTKAIVEPEKTTAEFEVPRLVLADSGFWECRVSTSGGQDSRRFKVNVKVPPVPLAAPRLLTKQSRQLVVSPLVSFSGDGPISTVRLHYRPQDSTMDWSTIVVDPSENVTLMNLRPKTGYSVRVQLSRPGEGGEGAWGPPTLMTTDCPEPLLQPWLEGWHVEGTDRLRVSWSLPLVPGPLVGDGFLLRLWDGTRGQERRENVSSPQARTALLTGLTPGTHYQLDVQLYHCTLLGPASPPAHVLLPPSGPPAPRHLHAQALSDSEIQLTWKHPEALPGPISKYVVEVQVAGGAGDPLWIDVDRPEETSTIIRGLNASTRYLFRMRASIQGLGDWSNTVEESTLGNGLQAEGPVQESRAAEEGLDQ
notes: Tie1, extracellular domain, expressed as Fc fusion protein; The Fc tag was detected with an anti-human IgG antibody; also called Tie1 with an Fc tag; source: bought: R&D Systems
With B2, the Kd in assay [2] is 43 ± 4 nM.
